Data published in patent US5786328.

How the values were obtained:
Human Factor XIa (human) [1] = biological target: Human Factor XIa (human) (UniProt P03951)
[2] = biological target: Human plasma kallikrein (human) (UniProt P03952)
[3] = biological target: tissue factor-Factor VIIa (human) (UniProt P13726)
Human Factor XIa (human) [4] = biological target: Human Factor XIa (human) (UniProt P03951); remark: listed apart in the source
Human Factor XIa (human) [5] = biological target: Human Factor XIa (human) (UniProt P03951); assay: inhibition of FXIa, chromogenic substrate, fit for tight-binding inhibitors (apparent Ki*)
[6] = biological target: Human plasma kallikrein (human) (UniProt P03952); assay: inhibition of human plasma kallikrein, substrate S2302, fit for tight-binding inhibitors (apparent Ki*)

## APPI (Alzheimer's amyloid β-protein precursor inhibitor)
Human Factor XIa (human) [1]
  fraction of remaining proteolytic activity with 100 nM inhibitor (fraction of uninhibited rate): 0.03
[2]
  fraction of remaining proteolytic activity with 100 nM inhibitor (fraction of uninhibited rate): 0.81
[3]
  fraction of remaining proteolytic activity with 100 nM inhibitor (fraction of uninhibited rate): 0.6
Human Factor XIa (human) [4]
  fold prolongation of the clotting time of normal human plasma, APTT assay: 2.8 fold
Human Factor XIa (human) [5]
  Ki: 0.0027 µM
[6]
  Ki: 0.34 µM
